Data as given in publication PMC2999606.

Target: Flag-tagged chicken p53 (chicken) (UniProt P10360)
Chain of UniProt P10360 (P10360 whole entry): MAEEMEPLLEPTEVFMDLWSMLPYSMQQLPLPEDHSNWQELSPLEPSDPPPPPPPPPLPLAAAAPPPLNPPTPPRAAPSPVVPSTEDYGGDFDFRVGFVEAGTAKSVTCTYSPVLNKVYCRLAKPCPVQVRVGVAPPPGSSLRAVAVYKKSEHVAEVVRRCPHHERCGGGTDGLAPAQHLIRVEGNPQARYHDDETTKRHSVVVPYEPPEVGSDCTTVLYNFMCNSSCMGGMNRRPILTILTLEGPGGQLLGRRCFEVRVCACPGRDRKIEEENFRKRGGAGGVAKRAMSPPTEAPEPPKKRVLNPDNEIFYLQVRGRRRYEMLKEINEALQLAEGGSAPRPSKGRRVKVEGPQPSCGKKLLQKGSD

Substance: GFP-tagged Meq (natural protein)
- p53-mediated apoptosis (TUNEL assay, percent of apoptotic cells) in CEFs co-transfected with Flag-p53 and Flag-Meq at 1:10 molar ratio; approximately 46% with Flag-p53 alone: 12 % of cells
